Measurements from patent US20080081903A1, “METHOD FOR SCREENING TRANSCRIPTIONAL COREGULATORY PROTEINS OF TRANSCRIPTION FACTORS, AND ANDROGEN RECEPTOR TRANSCRIPTIONAL COREGULATORY PROTEINS AS TARGETS FOR ANDROGEN RECEPTOR-DEPENDENT DISEASES” (NEW YORK UNIVERSITY, priority 2001, published 2008).

Key:
[1] = target: T1, androgen receptor N-terminus (AR18-500) (Rattus norvegicus, UniProt P15207); experiment: Modified yeast two-hybrid, quantitative liquid beta-galactosidase assay; format: binding; conditions: LexA-ART fusions vs AR18-500; twelve hour incubation in galactose-containing media
T1 construct: receptor residues 18 through 500 (using the rat androgen receptor number scheme); expressed in transfected cells; host or cells: Saccharomyces cerevisiae EGY188
T1 sequence (P15207 18-500): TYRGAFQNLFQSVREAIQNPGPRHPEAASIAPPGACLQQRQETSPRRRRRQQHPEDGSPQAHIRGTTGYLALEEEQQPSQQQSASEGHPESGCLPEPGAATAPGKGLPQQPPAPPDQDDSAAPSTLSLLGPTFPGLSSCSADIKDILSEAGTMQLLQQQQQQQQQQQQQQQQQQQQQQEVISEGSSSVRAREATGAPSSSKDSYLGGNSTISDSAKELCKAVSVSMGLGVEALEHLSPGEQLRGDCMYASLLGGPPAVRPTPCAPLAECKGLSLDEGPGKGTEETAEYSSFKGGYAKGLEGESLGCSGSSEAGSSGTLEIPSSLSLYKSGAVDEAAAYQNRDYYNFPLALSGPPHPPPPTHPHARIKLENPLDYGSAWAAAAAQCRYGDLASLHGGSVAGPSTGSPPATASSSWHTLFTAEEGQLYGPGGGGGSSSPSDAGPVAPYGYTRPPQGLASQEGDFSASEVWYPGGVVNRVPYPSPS
Description: (§1) The modified yeast two hybrid assay is described in Hittelman et al., 1999. EGY188 was transformed by the lithium acetate method with (i) pJG4-5:AR18-500, (ii) pEG202:LNCaP cell cDNA library and (iii) pJK103, a β-galactosidase reporter gene with a single LexA operator. Potential interacting proteins were selected by plating the cDNA library expressing transformants onto galactose plates lacking leucine and containing X-gal.
Yeast were grown in selective liquid media containing 2% glucose for approximately 12 hours, pelleted, washed once with sterile H2O, normalized according to cell number and resuspended to an optical density (OD600) of 0.15 in 2% galactose/1% raffinose. β-galactosidase assays were performed 12 hours later as described previously (Garabedian et al., 1992).
Out of approximately one million library transformants, eight clones were isolated that interact with the androgen receptor N-terminus. There protein factors were termed ARTs, for Androgen Receptor Trapped, by the present inventors. The eight ART clones were sequenced and were subjected to a database search using the BLAST program. A quantitative liquid beta-galactosidase assay was used to measure the relative strength of interaction between the androgen receptor N-terminus and the ARTs using the yeast two-hybrid system. The levels of expression of the ARTs in yeast were similar, as determined by immunoblotting using an antibody to the LexA DNA-binding domain that is common to all of the ARTs.
ARTs expressed as fusion proteins with the LexA DNA binding domain were analyzed for their ability to interact with AR18-500. The relative strength of interaction was determined by a quantitative liquid beta-galactosidase assay after a twelve hour incubation in galactose-containing media at 30EC. The LexA vector alone gives 1 unit of activity.

[2] = target: T2, androgen receptor ligand-binding domain (579-901) (Rattus norvegicus, UniProt P15207); experiment: Modified yeast two-hybrid specificity panel; conditions: absence or presence of hormone
T2 construct: expressed in transfected cells; host or cells: yeast (modified two-hybrid assay)
T2 sequence (P15207 579-901): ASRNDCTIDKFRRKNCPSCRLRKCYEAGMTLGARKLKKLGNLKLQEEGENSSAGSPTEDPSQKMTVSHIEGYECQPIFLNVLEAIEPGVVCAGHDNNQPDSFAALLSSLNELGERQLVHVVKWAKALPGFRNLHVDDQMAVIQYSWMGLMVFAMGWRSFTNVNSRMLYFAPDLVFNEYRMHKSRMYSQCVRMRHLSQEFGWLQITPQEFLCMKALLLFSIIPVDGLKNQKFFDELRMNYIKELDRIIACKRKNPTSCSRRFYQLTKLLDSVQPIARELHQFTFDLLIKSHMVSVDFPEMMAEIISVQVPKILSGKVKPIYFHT

[3] = target: T3, androgen receptor (AR) N-terminus (18-500) (Rattus norvegicus, UniProt P15207); experiment: Modified yeast two-hybrid, qualitative plate beta-galactosidase assay; format: binding
T3 construct: receptor residues 18 through 500 (using the rat androgen receptor number scheme); expressed in transfected cells; host or cells: Saccharomyces cerevisiae EGY188
T3 sequence (P15207 18-500): T1 sequence (P15207 18-500)
Excerpt: as §1
To analyze the specificity of ART interaction, the capacity of the strongest androgen receptor N-terminus-interacting factors to associate with a panel of transcriptional regulatory proteins in the modified yeast two-hybrid assay was examined. ART-5, ART-27, and ART-37 were tested for interaction with Sp1A (Sp183-262), Sp1B (Sp1263-524) the cyclic AMP response element binding protein (CREB3-296), TBP-associated factor 130 (TAFII130270-700), the glucocorticoid receptor AF1 (GR107-237), and the steroid receptor coactivator-1 (SRC-1374-800).
The strength of interaction was determined by a qualitative plate beta-galactosidase assay after a 24 hour incubation on galactose X-gal plates at 301 C.
ART-27 derivatives containing amino acids 1-45, 1-67, 1-127, 46-157, 68-157, 127-157, 1-157, and 1-45/127-157 were expressed as fusion proteins with LexA. These derivatives were tested for their ability to interact with the androgen receptor N-terminus (AR18-500). The strength of interaction was determined by a qualitative plate beta-galactosidase assay after a 24 hour incubation on galactose X-gal plates at 301 C.

B1: ART-5: Androgen Receptor Trapped protein, SEQ ID NO:4, unknown function, represented in EST database (protein)
chain: MHNPDGSASPTADPGSELQTLGQAARRPPPPRAGHDAPRRTRPSARKPLSCFSRRPMPTREPPKTRGSRGHLHTHPPGPGPPLQGLAPRGLKTSAPRPPCQPQPGPHKAKTKKIVFEDELLSQALLGAKKPIGAIPKGHKPRPHPVPDYELKYPPVSSERERSRYVAVFQDQYGEFLELQHEVGCAQAKLRQLEALLSSLPPPQSQKEAQVAARVWREFEMKRMDPGFLDKQARCHYLKGKLRHLKTQIQKFDDQGDSEGSVYF
modifications: Human
[1]
  relative strength of interaction with androgen receptor N-terminus: strongest
[2]
  interaction with androgen receptor ligand binding domain: No interaction
[3]; 24 hour incubation on galactose X-gal plates
  interaction with androgen receptor N-terminus: interacts exclusively
[3]; AR N-terminus, AR LBD, Sp1A, Sp1B, CREB, TAFII130, GR AF1, SRC-1
  specificity of interaction among panel of transcriptional regulatory factors: interacts rather specifically
